The results in this text go back to the RNAGym collection of RNA variant scans (doi:10.7554/elife.90254).

To fix the notation:
B1: LINE1-mini (parent)
chain: GGCAGAGCUCAACACAGCGUGGCAAAGUGGCUGUGGCUAGACUGCC

The variants in the data set derive from B1. Nature of the data set: self-cleavage, relative activity (ratio to wild type); higher = more cleavage; in vitro, sequencing; the parent is a self-cleaving ribozyme.
C13G A16G: the self-cleavage came to 0.01. C13G A16U: the self-cleavage came out at 0.15.

Take C13G A16C: the self-cleavage came to 0.08. On to A12U A24G, for which the self-cleavage is 0.39. On to A12U A24C, for which the self-cleavage was 0.24. Take A12U A24U: the self-cleavage was 0.31. As for A12U A25U, the self-cleavage worked out at 0.25. Turning to A12U A25G, the self-cleavage turned out to be 0.4. A12U A25C: the self-cleavage was 0.22. With C13A C46U, the self-cleavage was found to be 0.08. As for C13A C46G, the self-cleavage was 0.06. The value for C13A C46A was 0.07; that for C13A G36C was 0.06. On to C13A G36A, for which the self-cleavage is 0.23. For the variant C13A G36U, the self-cleavage was 0.12. Regarding A12U C31G, the self-cleavage was 0.04.

A12U C31A: the self-cleavage came to 0.04. The value for A12U C31U was 0.09. On to A12U G17U, for which the self-cleavage was found to be 0.09.

Regarding A12U G17C, the self-cleavage was 0.25. For A12U G17A, the self-cleavage is 0.05. Turning to A12U C37U, the self-cleavage was found to be 0.02.

Regarding A12U C37G, the self-cleavage stood at 0.06.

As for A12U C37A, the self-cleavage came out at 0.05. Consider C13A A16C, for which the self-cleavage is 0.08. Turning to C13A A16G, the self-cleavage amounted to 0.03. Regarding C13A A16U, the self-cleavage is 0.09.

In the case of A12G U28C, the self-cleavage was determined as 0.02. As to A12G U28G, the self-cleavage was found to be 0.01. For A12G U28A, the self-cleavage came to 0.04.

Take A12U C45A: the self-cleavage was 0.38. Regarding A12U C45G, the self-cleavage was found to be 0.08. Consider A12U C45U, for which the self-cleavage was 0.27.

Consider A12G G29A, for which the self-cleavage came out at 0.03. For the variant A12G G29C, the self-cleavage worked out at 0.02.

For A12G G29U, the self-cleavage was 0.02. For C13G A14C, the self-cleavage is 0.05. Take C13G A14U: the self-cleavage was determined as 0.09.

In the case of C13G A14G, the self-cleavage was 0.08. Take A12G G17A: the self-cleavage was found to be 0.02. With A12G G17U, the self-cleavage was determined as 0.05. For the variant A12G G17C, the self-cleavage was found to be 0.05. The value for A12C U38A was 0.01; that for A12C U38G was 0.03. With A12C U38C, the self-cleavage turned out to be 0.04. As for C13A G44A, the self-cleavage was 0.09.

As for C13A G44C, the self-cleavage was found to be 0.07. As for C13A G44U, the self-cleavage was 0.12. Under A12U C18A stands 0.18; under A12U C18G, 0.17; under A12U C18U, 0.53.

On to A12G C15U, for which the self-cleavage came to 0.03. A12G C15G: the self-cleavage came to 0.03.

With A12G C15A, the self-cleavage came out at 0.02.

C13A G40A: the self-cleavage is 0.09.

For the variant C13A G40C, the self-cleavage was found to be 0.07. The value for C13A G40U was 0.09; that for A12G C18U was 0.04; that for A12G C18G was 0.04. Turning to A12G C18A, the self-cleavage was 0.03. The value for A12G U38A was 0.06; that for A12G U38G was 0.02; that for A12G U38C was 0.04.

For the variant A12G G44U, the self-cleavage turned out to be 0.09.

On to A12G G44A, for which the self-cleavage is 0.04. Consider A12G G44C, for which the self-cleavage was 0.03.

Consider C13A G19C, for which the self-cleavage worked out at 0.06. Regarding C13A G19U, the self-cleavage worked out at 0.09.

With C13A G19A, the self-cleavage worked out at 0.15.

For the variant A12G G27U, the self-cleavage was 0.04. Take A12G G27A: the self-cleavage turned out to be 0.03. Consider A12G G27C, for which the self-cleavage turned out to be 0.03. The value for C13A C15U was 0.12; that for C13A C15A was 0.08.

C13A C15G: the self-cleavage turned out to be 0.08. For C13A G17U, the self-cleavage turned out to be 0.11. In the case of C13A G17A, the self-cleavage was found to be 0.1. Turning to C13A G17C, the self-cleavage came to 0.1. Turning to A12U C23U, the self-cleavage came to 0.34. The value for A12U C23G was 0.26; that for A12U C23A was 0.27. With A12G A25G, the self-cleavage amounted to 0.03. As to A12G A25U, the self-cleavage was 0.03.

Regarding A12G A25C, the self-cleavage is 0.16. For the variant C13A G30A, the self-cleavage was 0.08.

Turning to C13A G30C, the self-cleavage was 0.14. Turning to C13A G30U, the self-cleavage came to 0.11.

As to A12G C45G, the self-cleavage was 0.06. For A12G C45U, the self-cleavage turned out to be 0.05. Regarding A12G C45A, the self-cleavage is 0.1. Under A12G U20A stands 0.04; under A12G U20C, 0.08; under A12G U20G, 0.02. Regarding A12G G22A, the self-cleavage was 0.03.

Take A12G G22U: the self-cleavage turned out to be 0.02. Turning to A12G G22C, the self-cleavage is 0.04.

On to A12U C13A, for which the self-cleavage is 0.21. On to A12U C13U, for which the self-cleavage worked out at 0.14.

In the case of A12U C13G, the self-cleavage was 0.48. Take A12G U43C: the self-cleavage was found to be 0.03. Under A12G U43G stands 0.1; under A12G U43A, 0.12. On to A12G C31A, for which the self-cleavage stood at 0.16. Turning to A12G C31U, the self-cleavage is 0.05. With A12G C31G, the self-cleavage came out at 0.04. For A12U A26U, the self-cleavage is 0.28.

As to A12U A26C, the self-cleavage amounted to 0.16. Under A12U A26G stands 0.22; under A12G A24U, 0.03. For A12G A24G, the self-cleavage is 0.03. On to A12G A24C, for which the self-cleavage turned out to be 0.02. Under A12G C13U stands 0.06; under A12G C13G, 0.04. On to A12G C13A, for which the self-cleavage stood at 0.07. Turning to A12U, the self-cleavage amounted to 0.28. The value for A12G was 0.04. With C13G A24C, the self-cleavage was 0.07. The value for A12C U32A was 0.03. For A12C U32G, the self-cleavage stood at 0.06. Consider A12C U32C, for which the self-cleavage was determined as 0.05. On to A12G C23G, for which the self-cleavage was determined as 0.05. Under A12G C23A stands 0.02. A12G C23U: the self-cleavage amounted to 0.03. Under C13A C42G stands 0.08. The value for C13A C42A was 0.09. Turning to C13A C42U, the self-cleavage was found to be 0.09.

Turning to A12U G30U, the self-cleavage is 0.58.

Regarding A12U G30A, the self-cleavage is 0.48. Take A12U G30C: the self-cleavage is 0.46.

In the case of A12U U34G, the self-cleavage was 0.04. A12U U34A: the self-cleavage stood at 0.03. Regarding A12U U34C, the self-cleavage was 0.03. Take C13A G35C: the self-cleavage worked out at 0.07. Under C13A G35U stands 1.13; under C13A G35A, 0.15; under A12G G35C, 0.05. Take A12G G35U: the self-cleavage was determined as 0.04. A12G G35A: the self-cleavage came out at 0.02. Turning to A12G A26G, the self-cleavage is 0.03.

On to A12G A26U, for which the self-cleavage amounted to 0.03.

Consider A12G A26C, for which the self-cleavage turned out to be 0.03. Regarding A12U A14U, the self-cleavage amounted to 0.18. Under A12U A14G stands 0.18; under A12U A14C, 0.05. For the variant A12G A16G, the self-cleavage turned out to be 0.03.

Turning to A12G A16U, the self-cleavage stood at 0.05. A12G A16C: the self-cleavage stood at 0.06. Turning to A12C U43C, the self-cleavage worked out at 0.01.

A12C U43G: the self-cleavage is 0.01.

A12C U43A: the self-cleavage is 0.03.

Take A12G A41G: the self-cleavage worked out at 0.03.

For A12G A41C, the self-cleavage is 0.02. For A12G A41U, the self-cleavage is 0.04. Take C13A G27U: the self-cleavage came out at 0.08. The value for C13A G27A was 0.18; that for C13A G27C was 0.1.

In the case of A12G U32G, the self-cleavage was determined as 0.49. Under A12G U32A stands 0.15; under A12G U32C, 0.14. The value for A12U U32C was 0.07; that for A12U U32A was 0.04. As to A12U U32G, the self-cleavage amounted to 0.08. For A12U U43G, the self-cleavage was 0.12. Turning to A12U U43A, the self-cleavage is 0.04. As for A12U U43C, the self-cleavage was 0.14. The value for A12U A41U was 0.18. Take A12U A41G: the self-cleavage worked out at 0.09.
